Results from patent US20140248254.

Biological target: G-Actin protein

B1: Mus AChE protein (AChE 1-548AA, mouse) (protein)
chain: EGREDPQLLVRVRGGQLRGIRLKAPGGPVSAFLGIPFAEPPVGSRRFMPPEPKRPWSGVLDATTFQNVCYQYVDTLYPGFEGTEMWNPNRELSEDCLYLNVWTPYPRPASPTPVLIWIYGGGFYSGAASLDVYDGRFLAQVEGAVLVSMNYRVGTFGFLALPGSREAPGNVGLLDQRLALQWVQENIAAFGGDPMSVTLFGESAGAASVGMHILSLPSRSLFHRAVLQSGTPNGPWATVSAGEARRRATLLARLVGCPPGGAGGNDTELIACLRTRPAQDLVDHEWHVLPQESIFRFSFVPVVDGDFLSDTPEALINTGDFQDLQVLVGVVKDEGSYFLVYGVPGFSKDNESLISRAQFLAGVRIGVPQASDLAAEAVVLHYTDWLHPEDPTHLRDAMSAVVGDHNVVCPVAQLAGRLAAQGARVYAYIFEHRASTLTWPLWMGVPHGYEIEFIFGLPLDPSLNYTTEERIFAQRLMKYWTNFARTGDPNDPRDSKSPQWPPYTTAAQQYVSLNLKP
  cleaving of plasmid DNA by AChE (agarose gel) after pre-incubation with G-Actin: it almost had no effect on cleaving ability of AChE on DNA
